Paper PMC13022406, “Amino acid and viral binding by the high-affinity Cationic Amino acid Transporter 1 (CAT1) from Mus musculus” (Nature Communications, 2026)

B1: Cationic Amino acid Transporter 1 (CAT1) from Mus musculus, purified (receptor)
chain: not shown
modifications: N-linked glycans at Asn223 and Asn229
B2: Friend Murine Leukemia Virus receptor binding domain (domain or fragment, UniProt P03390 35-270, looked up)
chain: AAPGSSPHQVYNITWEVTNGDRETVWAISGNHPLWTWWPVLTPDLCMLALSGPPHWGLEYQAPYSSPPGPPCCSGSSGSSAGCSRDCDEPLTSLTPRCNTAWNRLKLDQVTHKSSEGFYVCPGSHRPREAKSCGGPDSFYCASWGCETTGRVYWKPSSSWDYITVDNNLTTSQAVQVCKDNKWCNPLAIQFTNAGKQVTSWTTGHYWGLRLYVSGRDPGLTFGIRLRYQNLGPRVP
modifications: N-linked glycans at Asn46 and Asn202
notes: the previously crystallized construct (PDB 1AOL); Residues 43-265 were built in the cryo-EM model; also called FrMLV-RBD; source: adherent HEK293T cells (lentiviral expression), secreted, purified (Ni-NTA, SEC)

Experiments:
[1] = biological target: B2; assay: BLI; MmCAT1 (100 nM, twin-strep and GFP tag) loaded on Strep-Tactin XT probes (Gator Pivot); FrMLV-RBD at 2.7 uM, 900, 300, 100 and 33.3 nM; 25 mM HEPES pH 7.5, 125 mM NaCl, 0.003% LMNG, 0.0006% CHS; room temperature; 5 min association, 5 min dissociation; settings: both partners purified
[2] = biological target: B1; assay: cryo-EM structure; MmCAT1:FrMLV-RBD complex purified by SEC in LMNG/CHS; apo and with 34 mM arginine, 20 mM lysine or 20 mM ornithine; settings: both partners purified

Binder	Kd [1] [nM]	stoichiometry N [2]
B1	9.7	–
B2	–	1
